According to the domain aggregation screens of Martell et al. (2025):

Test: soluble fraction after stress (log2 fold change); higher = more stays soluble; pooled small domains, quantitative proteomics
Settings: stress: 50 degC
Summary of the method: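 Quantitative proteomics served as the high-throughput read-out for pooled custom libraries of small protein domains. Each was stressed at 50°C. Aggregation propensity is expressed as the base-two log fold change in soluble protein after stress. A higher value means a larger share of the protein remains in solution.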

Sequence | soluble fraction (log2)
HMGHLTWTVTGIGHERRARTVAEQMSSVFGVLEARASSAGTVYLEFEREKIDEGGLEASLKRMGVTRVV | -1.71
HMSQIILSARSGHAALRHRLGELGYTFADKEFDDIYERFLEVADQKKEVYDEDLESIVQERQRD | 0.0537
HMRKDRKVLMERGRHIFNDLLEKEGIVATNQLMTKLLASHHLRNRDELYLMLANDDISLSSKEIKDLS | 0.0203
HMQIYLTPEQFKIIDFMEQMGKITVKDVMDILNIPKRTAQLHLQKLKTLKMIAQTGKGPSSAYLL | -0.959
HMPKDLEKRAAILAAAKHLFPVHGFEGTSMDAIAALANVSKLTVYSHFKDKESLFTEAIREK | -0.087
HMLTAPMPGTIQQILVTKGQKVRSGQTLMILEAMKMEHKIKAPNSGEIISINYSLGNRVEMGANLIEI | -1.13
HMSQLTVGTVVTGNASLQTQGLKLPSFASGSRPASPNIGQMIWNSSDAKAQIWNGSEWDDVG | -0.198
HMSGDYRPLYPNLPESEKSEAFNLLAGSALPARLDDRTGDIMVPADRYYEARMILANAGFAD | 0.0141
HMGDLDLVTFGQRLRHLRRSRNMTLSELGERVGRAPSQLSLLENGKREPKLSLLTALAKALDVSVEEL | -0.75
HMEPEVSNTYEKVLGMHHFSSTRSHQLHDLVRQANALELSLGEIESIAQSAKDGAQVISDIKHWMEPNRQ | 0.266
HMPLSDAEKAAAIATQAKERALKLSPEMISYLLRHASRDMRTLSMLVVALDQYTLEQKRPVTLPLLRELLS | -0.098
HMNQSAVMAERMKQTKNRILQTAKEIFLEQGYKRTTIRQIVERSGITSGSIYNIFSSKEEIFSALVDDL | -2.65
HMSLDLERAVALLSLPRPVGNHPEDGELVEAGIGRYGPYVKHGSKYANLPDADEVFTIGMNRAVEVLAAK | -0.0399
HMRMRPNERQKRIIELLSFRRHETIGNFANEFGVSRDTIKRDIITLQEEYPIISERGYEGGISLPDGYYI | -0.263
HMVNLLVTPLEELEINFRTLRALRKYNIYQLEDLLRFIKYNGFDALRIVPGMGIKSTEQLYEKLKDKNI | -0.236
HMEIEETKKNSRTKIPENFDYKLINGLSNEIRAKLELIRPIDLLQASRIDGMTPAALTLVHLWIKKYSG | -0.338
HMDSDMGQQLKTLLTVGTFMSSKELKAIAQQLGLKKPTDLKEWVELESGTQRIEGKPTKGYWIKMNDINN | 0.159
HMRQVFPNPSSSQIKLASSRIGQAFSILDQQGRVVLSGKVSEEAVIALENLAKGIYVLKIGSWSETILK | -0.903
HMFYNDLINFDVFRDSRKIGKIENINSRLPQPVFEIMYDSRIVLIPIHEDFIRKIDKVNNIIYLDIPDGLL | -1.72
HMDLDLNIDNYNFDDLLNLFGLKMKFSEDDLKKAKRSVLMTHPDKSGLDKQYFMFFTKAYKMLSQIYYFR | 0.42
HMSHGFFELKTTQKEALIKLLDSHPNFTHTKTEADLTTAFLKLPMDAEQFNKLLFTNGIVLSHLVKRK | -0.668
HMADEGFRQTVLAVLARWESKIHHGQYNALKAKVMNGNWSSFVKQVVKFQGKFIHPDAAKELLGLFG | -0.0749
HMDTNKMLIVNSISNGMKRLQELQDPQLAEIQKTFSGLDEQKATSAQLAQINNIINNRIAEIEG | 0.145
HMTDYREILRLLSLGLSRTQIADSLNVSRTTVIHTLQRAVAQELDWQTAEGMSDRELVAKLFPV | -3.47
HMEPDEQAVKALIAEIDKLSKEKLTLKHEKKLKELREIYDDFTEEEKKLVTNYDILVKMEKRMEVLKKQEG | 0.111

Sequence | soluble fraction (log2)
HMFKLPRTIGTFEDSDVVIGAGKFGPYIMHNKKFVSLPKSEDPLTIGLERAIELISAKREQEKQRH | 0.284
HMAIIQSNNIFKSQKEIVDEILVELDIPKDKWNFFHMLISSGYKDEFDTNRIYEIIQTNYNMMDR | -0.205
HMIAGHLQEKKGFFYIVLSYPDAAGKRKTKWFPTKLSVKGNKKKAEVMLMDARKTFVPPETPL | -0.501
HMTPDGNATVWSANGYGVRLRTGPGKGYAIIGVYSVGTTVKVLERGPAGGWDHIQVGSRVGYMMNEFLHYY | -1.69
HMLPLIEVPAVTGKYLTKAKSALKDAGLDTGDIKRVEHEEHGENYVLKQDPPAGTKVPFGTTVSLTVVAP | 0.35
HMSTTHLTASVIKDKVNVRSEADSQNGAIIDKARTGERLLVTDYGNKWTGIVLPDGKRGYIMTEYLQF | 0.0443
HMHGSSSTVPPVKGLSFEQARLTLAENDLTVEISDSIYDRNARPGTVVESWPRAGSVVKQGRQVYVTVTAF | -0.922
HMQDKLLRKKEVLEMVSITNSTMYRMIGSGQFPRPIRLDNANINSGVRWKLSEINTFIEQRF | -0.409
HMPEITPAMIKALLSSLSEELAFASVTKVYAVLHNLFKAALLDDTIDRNPMDKVPRPRKSKDAAL | -0.38
HMFPNLTNEEQQVMKVLAKTNDLQINMLSVQSNLPIARLTALLFSMEMKGVVKTLAGGVYHLL | -3.23
HMSKLQETEIPVALEVEKIPGLSNELKQKLLKIKPQTIGQASRISGITPAAISILMIYIKKNESISAVK | -1.57
HMKLTNNDFIRLKTFMYNNYGINLENKKTLIETRLAIVVKRLGFNDFKSYIDNLMRDKTGEQASIIVGKLT | -0.58
HMPAPKPSGALSLKDEPLYAASDSKRRSGTVSGTYYRWDGENVNGRMRITNKQENIGKAGQVTGWITAH | 0.087
HMTPELTAEEREVLSLLGDEPRTLAELIAASGRDYAALSVLLMGLELSQAVRQLPGNRYERF | -0.934
HMVKETNYSFFLKQIDAGTVEQVQIEDTEIKFKVSTADGKEQVYSTVRVEDPDLVDRLYSKGNIDFTGN | -0.0595
HMAITYETKVISGVNLRSAPSTSASVYQLIPKGENIHVVQKVNDYWLKVQTKDGKTGYISASSKYTNYIG | -0.773
HMKHVENLSDEKTIQAIQENPYMQYLLGLSKFTEKPVFVPELFVLIRKRLDQDFFNMLTLILAEADG | 0.143
HMTSDADSLRDKTGYVAEQVTSKGGKVNLYDGGFDSLYSARSTGETISTGTEIRVVDPGGGNMLVVEPV | 0.367
HMKLSLKTQVKEYLLSYIRDKKLQPGDRLLTQRELAEMLHTSQKVAQMALNSLEEEGIIIRRLGSGSFLAR | -1.11
HMPAVTEQTRANLRTAFWSLYREKPTSKITVREITDRAGYNRATFYLYYRDVYDLFEQIEQEIL | -2.36
HMGISEKVINIIETYTMIARKKYPSVKSLAEHFNVSERTVHRYLEIIKMIDVVDYDREKKGYFFPYGDR | -1.11
HMPDAGQRRYLELVTALAGARSLTIDDLERRAIRFAEWGNGYSGRTARQFIDTLLQDRGVAEEL | -0.405
HMQDKIWVVDETQLYPKLIEAMSEGKAVIHDGVAYWAEGSGKTGVIQHLPFKETTVQNVEEAIKLAQ | 0.169
HMLMTGSLQTKHGKYYVVVRIPDGLGNTKAKWINTGIPTDGNNKRKAQQRRIEILTELEENKD | -1.84
HMLSKEERRSQLLDLGVRLLSTRSLDELSIDLLAEEAGISRGLLYHYFGNKHDFHEAVVRRAADDLI | -1.75

Sequence | soluble fraction (log2)
HMQEERDISFIKIHLEPGHPWRGRALRELMPLKDLLIVMVVRGEDTIVPNGDTRLEEGDLLVLAAYPFEE | -0.436
HMAQTTKWREIHKVKRKETIFGIARDNGLTVDELIEANPEMTKPGYELKKGDFIYIPFPSKNIDTNAGTQT | -0.157
HMTVPNVVGQRILAAQDILKNLGLKVLVDTNLPNSQWGLRNVKSTNPGAGAVVRVGDTVTLIAR | 0.0114
HMSIEHVPGYTTLSKREQEIVHALLTRKTPEELADDLSISINTLNKHISHIYHKLGIRGRMQLFDYA | -0.284
HMPPNPELGKKLLKLRKEFKMTQDDVANILGMSRTSFSKYENGIANPPLQVMRKLASIYNVGLEYLI | -1.04
HMISSKDIINDEDGARLGKIADVEIDVATGKILSVHVYRSFKLLHLFGNKDVVQIPWNKIMKIGSDVVIVE | -0.0123
HMRENAARNRNVNLDIGETLRVDAWSPERRARVQYRGAAWDVELAPNAPATVGEFRIVEVRGNVLVVTP | 0.0231
HMVSSAEQQARDKESGMILVQEAGGPDKARALVEKMRQDIRNPALDGTRRQMLRGHVARIELALAELETG | 0.00436
HMGIFDIIQEINRQGVTVLLIEQNANMALKIADVGYVLETGRISLTGSGRELLANEAVKKAYL | -0.0514
HMQRYYDVLGLQKGVSPEELKKTYRELSKKYHPDAHHNSPLRDLAEAKFKEINEAYEKIKEFLDNNF | 0.15
HMPEPAPALPAKTRVSIRRETGGIIWHEGAWTISPPIRAYDGRWYVAVTTARKGIEFVPVSSVIRS | -1.07
HMVGQIISNARKQEKMTQSELAEKVGTNKTYISRIEKGVIEPGVGLFFRIIDALGLKIEIVKP | -1.25
HMRPDSFEAGEAEAGSRLDRLLAARLGIPRNQVQQWIGGGRVTVDAEPVRASLVVRAGMRIAWDPPPPP | -0.0768
HMFDFLELGQAIQDAREKQRITREELAEELGISARHLQSVEKEGQYPSFRLFIQLVTMFHISVDQYI | -0.0829
HMRIAQYRQIENDLLEQINLGYYKKGDLIPTELELSATYHVSRVTVRKATDNLVAKGILQRVAGVGTFVSR | -1.87
HMAGTWQDQGNGQWKYQNDDGSYATGWIEDSGKSYYLDANGIMLANTTTPDGKQVGPDGALIP | -0.141
HMEAVLTISPGMYSESVSAELVRLGIITNQKEFNSYLVNNGYAERIQTGDFKIKADMSYDEIARIITK | 0.231
HMVTLQEVKQYLRIDFEEEDPLLLSLLATAKQQVMNVGRMDEAQLSEHEDTARTAILYAVSYLYENRN | -1.85
HMLQADALADPVGWALRTLGFDLEAGTPERSAIQRSFRQSLIEAHPDHGGADDEAAQRIADITEARRILLA | -0.346
HMGQKNEDESLAKFYVHKKGNQYGPYSLIQIREYLKNNSFSLDDLASWDGQSWKKISQIPNLN | -0.075
HMSKININTITESELKELPISTVKQKAIQDYLIDRGFISNIYDLLDIKEITSDDVSLLKKVVNVKLPY | -0.218
HMTVVSVDDQASASSEAIRTKVAGDSAARMSVDAGGKITWGAGSASGDVTLYRSAANTLKTDDTLVAT | -0.0266
HMIVVMARETSTDDLEAIRERIESRGMVAQINLGVERTVIGVMGSIPPDFKDEMELMNGVVEVVMISK | -0.408
HMGSEEMLGALGVVERATDDGDWWIAVHGEHWRARSAQALVPGDRVRVARIDGLTLTVTPIA | -0.0957
HMQSFIEELLPVVDNFERSLAVVDPSDEIKNFLKGYEMIYNQLMEVLKSQGVEVIKTEGEEFDPNFHQA | 0.0366
